The results in this text go back to PMC3998727 (Nature medicine, 2012).

In assay [1] the test system is DN kidney. In words: Advanced diabetic nephropathy, captopril and THR–123 combination. In kind it is in vivo, mice. Conditions: eight months DN.
Assay [2] concerns tubular epithelial cells (TECs; NP–1 cells). In words: Hypoxia induced apoptosis of TECs. Conditions: Annexin V; NP–1 cells in hypoxia. The assay is classed as cell-based.
Another assay has as its system TECs (NP–1 cells). Briefly: Reversal of TGF-β and EGF induced EMT in TECs. The assay is classed as cell-based. Conditions: TECs after 48 hours of incubation with TGF-β and EGF.
The subject of assay [3] is DN kidney. In words: Streptozotocin–induced diabetic nephropathy. In kind it is in vivo, CD–1 mice.

As to `C[C@H](CS)C(=O)N1CCC[C@H]1C(=O)O` [CPR, captopril], in the assay on DN kidney [1], the EMT program result was “inhibited”. Further, the macrophage infiltration entry in the assay with DN kidney [1] (Mac–1) is given as “inhibited macrophage infiltration”.

B1: BMP7: Bone morphogenetic protein–7, member of the TGF-β superfamily, natural ligand of Alk3 (protein, UniProt P18075 293-431, looked up)
Bone morphogenetic protein 7: STGSKQRSQNRSKTPKNQEALRMANVAENSSSDQRQACKKHELYVSFRDLGWQDWIIAPEGYAAYYCEGECAFPLNSYMNATNHAIVQTLVHFINPETVPKPCCAPTQLNAISVLYFDDSSNVILKKYRNMVVRACGCH
In the case of B1, the “hypoxia induced apoptosis of TECs” value in assay [2] is reported as “inhibited”. Also, the “reversal of TGF-β–induced EMT” value with TECs (NP–1 cells) was “reversed”. Moreover, the mesangium expansion result with DN kidney [3] (STZ–induced six month DN, BMP7 1–6 months, THR–123 5–6 months treatment) is “inhibited mesangium expansion”. In the assay on DN kidney [3] (six months DN), the “induction of an EMT program” value is “inhibited induction of an EMT program” and the “renal dysfunction (blood urea nitrogen)” value was “significantly reversed renal dysfunction”. Moreover, the macrophage infiltration result in the assay on DN kidney [3] (six months DN, Mac–1, F4/80) is “reduced macrophage infiltration”.
